Experimental data as given in publication PMC11968058.
Where a chain is given by its changes, count along the chain named. Names may count otherwise.

B1: AtCOMT (Arabidopsis thaliana) (protein)
chain: MGSTAETQLTPVQVTDDEAALFAMQLASASVLPMALKSALELDLLEIMAKNGSPMSPTEIASKLPTKNPEAPVMLDRILRLLTSYSVLTCSNRKLSGDGVERIYGLGPVCKYLTKNEDGVSIAALCLMNQDKVLMESWYHLKDAILDGGIPFNKAYGMSAFEYHGTDPRFNKVFNNGMSNHSTITMKKILETYKGFEGLTSLVDVGGGIGATLKMIVSKYPNLKGINFDLPHVIEDAPSHPGIEHVGGDMFVSVPKGDAIFMKWICHDWSDEHCVKFLKNCYESLPEDGKVILAECILPETPDSSLSTKQVVHVDCIMLAHNPGGKERTEKEFEALAKASGFKGIKVVCDAFGVNLIELLKKL
B2: AtCOMT (Arabidopsis thaliana; F174L) (protein)
chain: B1 chain with F174L
B3: AtCOMT (Arabidopsis thaliana; H313A) (protein)
chain: B1 chain with H313A
B4: AtCOMT (Arabidopsis thaliana; N129V) (protein)
chain: B1 chain with N129V
B5: AtCOMT (Arabidopsis thaliana; F174L/H313A/N129V) (protein)
chain: B1 chain with N129V, F174L, H313A
B6: AtCOMT (Arabidopsis thaliana; H313A/N129V) (protein)
chain: B1 chain with N129V, H313A

Substrate: O=C(O)/C=C/c1ccc(O)c(O)c1
Experiment: purified protein
Settings: co-substrate SAM
[1] = optimal conditions (30°C, pH 8.0)
[2] = optimal conditions (35°C, pH 8.0)

| Protein | kcat (optimal conditions) | kcat/Km (optimal conditions) | further results |
| --- | --- | --- | --- |
| B1 |  |  | kcat [1]: 0.327 s⁻¹; kcat/Km [1]: 482 M⁻¹ s⁻¹ |
| B2 | 0.369 s⁻¹ | 1120 M⁻¹ s⁻¹ |  |
| B3 | 0.4 s⁻¹ | 606 M⁻¹ s⁻¹ |  |
| B4 | 0.458 s⁻¹ | 828 M⁻¹ s⁻¹ |  |
| B5 |  |  | kcat [2]: 0.475 s⁻¹; kcat/Km [2]: 2020 M⁻¹ s⁻¹ |
| B6 | 0.498 s⁻¹ | 1390 M⁻¹ s⁻¹ |  |
